Assay results taken from article PMC3600519, “Acute toxicity of vipoxin and its components: is the acidic component an “inhibitor” of PLA2 toxicity?” (Interdisciplinary Toxicology, 2012).

Molecular target: T1, vipoxin basic and toxic phospholipase A2 subunit (Vipera ammodytes meridionalis, UniProt P14420 1-122)
T1 sequence: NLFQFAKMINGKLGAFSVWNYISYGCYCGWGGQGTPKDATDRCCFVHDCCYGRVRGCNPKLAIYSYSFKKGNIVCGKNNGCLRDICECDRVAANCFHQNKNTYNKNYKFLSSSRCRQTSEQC
Assay: cell-based or functional assay

B1: vipoxin's acidic component (natural protein)
chain: NLFQFGDMILQKTGKEAVHSYAIYGCYCGWGGQGRAQDATDRCCFAQDCCYGRVNDCNPKTATYTYSFENGDIVCGDNDLCLRAVCECDRAAAICLGENVNTYDKNYEYYSISHCTEESEQC
residual PLA2 enzyme activity (NOBA substrate) of reconstituted complex PLA2 + VAC (1:1 molar ratio), pre-incubation 1 min to 24 h (100, 120, 115, 114, 114, 113, 108, 78 %): 120%
